In the supplement of paper PMC10567573:

B1: SLC22A15 (parent)
chain: IAQYALLGYFIRSWRTLAILVNLQ
B2: FAM189A2 (parent)
chain: VAAALRYLQIFATRRSCIDESQIS

Variants of: B1
Test: protein stability index of a GFP-peptide fusion (GPS, HEK-293T) (PSI 1-6); higher = more stable
Conditions: c terminus: a fixed tail appended
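Further: lentivirally expressed fusions sorted by FACS into six bins by GFP to DsRed ratio, PSI derived from sequencing read proportions per bin multiplied by bin number.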

Protein stability index, by site and new letter:
L23: W 2.35, K 3.75, E 2.25, D 3.83, T 3.08, P 2.52, G 3.35, H 2.81, R 2.6, Q 3.66, S 3.76, A 2.65, I 2.5, F 2.79, V 4.42, Y 3.34, C 3.16, N 3.06, M 4.11
N22: R 1.22, S 2.85, E 2.57, V 2.23, T 1.9, G 1.88, A 2.95, I 3.28, K 2.52, F 2.84, W 3.89, D 3.52, M 2.6, H 2.27, Y 1.37, Q 3.36
V21: N 2.8, C 2.52, E 2.14, H 2.69, G 1.76, P 3.37, R 2.7, I 4.67, Q 2.24, T 3.6, S 2.08, A 2.78, L 3.19, Y 2.37, K 2.38, F 2.86, D 2.85
L20: Y 2.76, W 2.32, S 3.12, V 2.1, T 2.91
Q24: W 2.37, Y 2.82, V 2.92, T 3.58, S 2.34, D 2.49, C 2.35, A 4.01, R 3.17, K 3.21, G 2.66, M 2.6, N 2.07, I 3.51, H 2.79, E 3.5, L 3.01, P 3.8, F 2.7

Variants of: B2
Test: as above
Conditions: c terminus: a fixed tail appended

Protein stability index, by site and new letter:
F11: N 1.34, G 1.74, R 2.63, H 2.04, A 2.69, Y 2.36, K 2.03, C 4.31, P 2.1, W 2.83
Q9: T 3.26, K 1.7, L 2.47, D 2.94, A 2.72, C 3.59, P 2.14, M 5.39, E 3.07, R 2.24, I 3.15, V 2.85, N 1.81, W 2.67
L8: R 1.84, T 2.02, F 2.23, C 2.81, E 2.04, G 1.34, A 2.36, Y 3.39, H 2.08, S 1.9, D 2.44, P 1.68, N 2.14, Q 1.6, V 2.6, K 1.89, I 1.98
Y7: G 2.02, F 3.33, M 2.22, C 2.06, P 2.04, K 1.63, N 1.98, V 2.4, I 1.99, H 2.25, A 1.95, L 2.68, D 1.76, T 2.49, R 1.85, E 2.41, S 2.92, Q 2.64
A4: T 1.88, I 2.64, N 2.83, E 1.25, Q 2.73, W 2.27, M 3.33, C 2.83, H 1.89, P 3.34, Y 2.02, D 2.19, L 3.72, S 1.88, G 2.23, R 2.09, F 1.65
T13: Q 2.08, H 2.75, K 2.61, M 3.45, P 2.29, G 1.72, N 1.99, A 1.71, F 2.78, D 1.52, S 1.76, R 1.51, E 2.07, V 2.99
A3: F 1.83, C 2.42, R 1.71, I 4.72, W 3.75, G 2.61, N 2.98, S 1.97, E 2.34, Y 3, T 4.19, P 1.52, H 2.27, V 3.92, Q 1.8
A12: F 2.03, P 3.67, K 2.13, N 1.28, M 2.18, Y 2.74, R 2.46, I 3.18, S 3.61, L 2.85, Q 2.29, D 1.97, G 1.65, C 2.17, V 2.09, T 1.97, H 2.87
S16: G 1.41, L 2.4, D 1.8, V 2.01, I 1.5, K 2.15, M 3.14, A 3.14, N 1.57, W 2.37, T 2.29, C 1.87, E 1.79, Q 1.79
I10: D 2.24, V 1.69, C 1.72, A 1.73, W 2.48, E 2.08, N 2.51, Y 2.65, Q 2.37, G 1.87, H 1.7, P 2.77, M 2.68, R 2.55, F 1.73, T 1.59, S 2.19, K 2.73
R6: K 1.68, E 2.75, G 1.81, I 4.08, S 1.89, Q 2.54, P 2.76, T 2.41, Y 2.79, C 3.52, V 2.96, H 2.98, L 3.52, N 1.23, D 1.69, M 4.04
V1: W 1.79, E 1.58, N 1.89, T 3.71, Q 2.38, P 1.56, K 1.65, Y 1.07, C 1.68, D 1.82, G 1.67, H 2.36, R 2.21, M 1.95, S 1.38, A 3.21
L5: C 1.18, E 1.87, K 1.48, M 1.46, V 4.11, H 3.09, T 1.66, N 1.92, A 3.88, P 2.08, F 2.43, I 3.7, Q 2.12, D 2.36, W 3.03, S 1.41, Y 3.26, R 2.94, G 2.91
R15: C 2.03, K 2.62, T 2.69, F 2.52, Y 2.55, E 2.13, H 1.94, N 1.59, P 1.52, D 1.88, V 2.81, S 1.99, M 1.28, I 1.77, A 2.44, L 1.35, Q 1.67
R14: E 1.12, G 1.88, K 1.79, M 1.56, H 3.33, N 1.5, S 2.38, P 2.78, I 3.84, Q 1.91, C 3.16, Y 3.44, T 2.5, A 1.61, F 2.54, L 2.5, D 2.37
C17: A 1.72, E 1.71, G 3.03, D 1.9
A2: C 2.64, R 2, N 1.27, I 4.56, E 1.89, F 1.74, G 2.53, Y 2.15, W 3.06, M 1.99, Q 2.29, K 3.28, D 2.63, L 2.9, P 2.46
